According to patent US20240368223A1:
Bridges are numbered along the chain shown (N, C = ends). Primed or numbered codes have the meaning given here. The star is where a group is joined. Biotin = O=C1N[C@H]2[C@H](CS[C@H]2CCCCC(=O)*)N1; PEG4′ = amino-PEG4 spacer

Legend:
[1] = molecular target: human IgG (Chugai Pharmaceutical Co., Ltd.) (human); assay: SPR, BIAcore T200, IgG immobilised; 1:1 binding fit
[2] = molecular target: human IgG (Chugai Pharmaceutical Co., Ltd.) (human); assay: SPR, BIAcore T200, IgG immobilised; equilibrium value

Kd [1]: 9.1 nM
Kd [2]: 10 nM
B1: Type I IgG-binding peptide …-NH2 (peptide)
peptide: {Biotin-PEG4′}-GPDCAYHRGELVWCTFH-NH2
modifications: disulfide 4-14
